The DeepSol protein solubility set

assay: soluble on expression in E. coli; label from the status in PepcDB or PDB records

Sequence | soluble on expression in E. coli
MVSLTMVPIDALLSKEVNAFIVQHKHASVAELMLRMPVFTVDSRWIAAQIEGWQKASQKLPLWASTENIIYPIRLSMEQCSSERTAHYKSTLMSGERLVDLTGGFGVDSFYLSKSFNEVIYIEQQEDLAEIAAHNFSTLNQNNIVVKTADSDEYLKDIAEKIDVIFLDPARRKEMRKVYKLSDCEPNVVALQSFYFSKADVILIKTSPMLDITEATRQLTGIKEIHVVSVDNECKEVLYLLEKNYSGKATYICAHDYKKQLQLFSFTIAAEQAVTLSYSAPLAYLYEPNPSILKAGGFNSITQKYEVFKLHASSHLYTSASEVSDFPGRTFKIKETVGYSKKDIQAAVPGGKANIQTRNFPDSVEAIRKKTGLKDGGNIFIFATTLHDLSKVLLICEKI | not soluble
MHHHHMITLENPDIKYPLRLIDKEILSHDTRRFRFALPSPQHILGLPIGQHIYLSTRIDGNLVIRPYTPVSSDDDKGFVDLVVKVYFKETHPKFPAGGKMPQYLENMNIGDTIEFRGPNGLLVYQGKGKFAIRADKKSNPVVRTVKSVGMIAGGTGITPMLQVIRAVLKDPNDHTVCYLLFANQSEKDILLRPELEELRNEHSSRFKLWYTVDKAPDAWDYSQGFVNEEMIRDHLPPPGEETLILMCGPPPMIQFACLPNLERVGHPKERCFTF | soluble
TEQKQKHMEQLSDKNGIISALAFDQRGALKRLMAKYQSEEPTVSQIEALKVLVAEELTPYASSMLLDPEYGLPATKVLDDNAGLLLAYEKTGYDTSSTKRLPDCLDIWSAKRIKEEGADAVKFLLYYDVDSSDEVNEEKEAYIERIGSECVAEDIPFFLEILSYDEKITDSSGIEYAKIKPRKVIEAMKVFSNPRFNIDVLKVEVPVNMDYVEGFAQGETAYNKATAAAYFREQDQATLLPYIFLSAGVPAQLFQETLVFAKEAGAKFNGVLCGRATWAGSVKEYVEKGEAGARQWLRTIGFQNIDELNKILQKTATSWKE | soluble
MNNQLVISDYIFPIHQYGKMGTIHSVFERSFNLKVQDQLINVANFHNYLSSFGMFLPDQLFQEIFPYVQQGNKVKITENQLTFYSTVGVKTIQLTPAEVVSLNITHFKLEKDQLRLLRDRLLARNLERRIGLPLDERAKHIFKKMSQKQKVWTLSEWQEVTNYLIGRGKGLTPSGDDILVAYQTILFILADERAAALAATLSAANLSTTDVSKGYIASSAKGYVNSLLYQLLLDLENHRDNRVDENIDRIIQIGHSSGKDMSFGMLLALQSVELDEK | not soluble
MSVEAAKNARELLLKEYRAVLSTHSKKWPGFPFGSVVPYCLDAEGRPLILISRIAQHTHNLQADPRCSMLVGERGAEDIQAVGRLTLLAEARQLAEEEVAAAAERYYRYFPESADYHRVHDFDFWVLQPVQWRFIGGFGAIHWLAAERVPLANPFAGEAERGMVEHMNSDHAAAIAHYVELAGLPAHAAAQLAGIDTEGFHLRIGQGLHWLPFPAACGNPGAVRQALVQLARAERWPTVEPEQG | soluble
SNAASATETNTAPSADTQAPKPVNTVTSDVDCSVSAAWGLYKFNQKSNFSAEFEMPESVKAGTGFDALIKIKDISVSNDNLSGYKNAKLTKSSIRINVGKNVKLDGNQPGLSLSNGVLSINDHLKASLEGNSLRISAAPITVRLQALTEGTLTFIPEKTILTNTASVDGYTANTTCTTNADKPFATVKVDPADGLTITAPESASIKQDVQITATVPEKLNEKMDGKVQFFVNHIAAGDPVPVTEDNKASTSIIFDTSGSKTITARFIDAEGYNPAPDGETIIPVVTELDTKKPEDTDSYTGLINGSATSLLKPAKVMPGEKVSVSASLLPNKAPIRVYEIGINAPEDVKYIDGTGKTNYSSKLATTGSVFSSPGSGYYDPEWKNESKKPNESYRGFHSDTSYSVVDTSPQTVSAEFEIPKTLAPGIYMFQMGVYKYSNSLKDLVSIPETAFEIAGPDLPALPERKIKPQPEETPEVSDGSSTAKLVKSP | soluble
GPLDLSRDECKRILRKLELEAYAGVISALRAQGDLTKEKKDLLGELSKVLSISTERHRAEVRRAVNDERLTTIAHNMSGPNSSSEWSIEGRRLVPLMPRLVPQTAFTVTANAVANAAIQHNASLPVPAETGSK | soluble
MSEEPAAKRMKNADEFPNLRSEVAGPVKEKLIELDAIQHQLDVMSENAAEEVLKVEQIFNQKRLPIYEKRKKLTTKIDNFWQTAFLNHHLLSTAIPEEQEDLLAALRDLEVQEFEDLRSGFKIIMTFDPNEYFTNEVITKSYHLQSESPSTEITEIEWKENKKPPFKPEDGDSAHTFLEWLTYAALPDSDEIAEVIKDDLYVNPLQYYVMPDMQEVEEDDIEDFLNEERGVDENGQRIPRRNISDSLKVDQDESADGQEGEDEEEEDMGEEEEDGVEEEAEGEEEEEDGAIEEEGGDENVEAHVAVNPENTAE | soluble
MSLASIRTRIMILSDTHAQRFQPGLEPLEPVDLVIHCGDLTNNSTLRDYREAIHLLDSIKAPLKIVIAGNHDFSLDDKAYRRKIRETCRINQENLSGAIKAEYGQVGEAQQILLEAVAKGITFLSEGPHQLQLPSNSVLELYVSPYTPTHNCPGWGFQYDGIHDFNIKQGTDIVITHGPPLGIMDLTSNNERIGCPQLFAAVARAQPRVHCFGHVHEGWGAKLVSWRPNEGHHHHHH | not soluble
SRGHDATSWINRCLDCFSEGLSFRRQSKRPKMKVHYGDKAKDYDYNARKKQQSEEIDRILDKLKKSGYNSLTTEEKKSLFDASKK | not soluble
MKKEEGLTENTGLPRKLLEKHDPWPAYVTYTSQTVKRLIEKSKTRELECMRALEERPWASRQNKPSSVIQPKRRKSSKSSGKAVFRDTLSESTLSMWGAYSVLAMAPTMIPEPTHLHADSRDCPTENYNKIIFARKPMMRMLPTVRY | not soluble
MVASSINEESSLAVNLTSDVEKASKTLFKAFEKSYANDYLMKKFFHIPITEKVSRARINAMIHYYTTCYHDLDGEIAEANDFDAVAIWSRPGCHLPATLSDDESFNKIFFSRLDCEEARSHASGNGLLLPLCHRKRS | not soluble
PCFALTGPEAGSDAGGIPDQGVVCYGMYDGEEVLGVRVSWNKRYITLAPVATVLGLAFKLQDPDGLLGDKKDVGITCALIPADHDGVEIGERHDPLGSAFMNGPTRGEDVFIPMDWLIGG | not soluble
MGILSDKDIAYLKDLFGKELKRKVKIVFFKTEDKTRCQYCEITEQVLEELVSVDPKLELEIHDFDSDKEAVEKYQVEMVPATILLPEDGKDYGIRFYGVPSGHEFGTLIQDIITVSEGKPQLSEESIQKLQSLEEPIRISVFVTPTCPYCPRAVLMAHNMAMASDKIIGEMIEANEYWELSEKFGVSSVPHIVVNRDPSKFFVGAYPEKEFINEVLRLAKG | soluble
MSLVDLDLTQIQKDILYALITLYKKKSGGSVKGEEIAELINRNPGTVRNQMQALRALGLVEGVPGPKGGYRPTSKAYELLSVTRPEESVVVPVVVNGNVMEELSAEEIVLPSISNPNICQARIRIIGDIKKINPGDSVIVGPTPVNEMMVYGKVVGRDDTENTIVLDIEKIVALPKDTVGEHMSSPIISVDAEESVVNAAKVLAENGIYCTPVQKNGKFVGIFTLDHVAKAVAEGKLNAKVEEVMRPKLVMVEKDTKIGEALRLMRDEKVRILLVTDKGEPVGVITDQKILTRLAPEQVETEGHHHHHH | soluble
MSLKLRGHHLICLQFFRGEGYSGEFVENVKKIMERLESGETVEVVAGVDDICVACPYNRGYCGKDETSEERVREMDKAAVRLLGVSEKTTWREVAERIEKVLNEWRVFCEDCDWKEVCYGEGHHHHHH | soluble
MGASKYDVKRLVDDYVNRLAKNGVLPDVIDKEPILPRVTLPESEITSQSYRKYPKKPKAIGKVGSTGGNRNGMGAIHPTLISYPEEQRKTNSRVKNNRSNYHIGNIGNIGGNIGNGQKMNRNKNGGRNQGGNHPDNMGIPMFPIARPTPYDLAEYIERGLNTGRSNHRTPQNFRRYPEHECDYYAGPCATSF | not soluble
MAHHHHHHSLKTKIIVIVGPTAVGKTALAIEVAKRFNGEVVSGDSQQVYRGLDIGTAKASPEEQAAVPHHLIDVREITESYSAFDFVSEAKMTIEDIHSRGKLAIIAGGTGLYIQSLLEGYHLGGETPHEEILAYRASLEPYSDEELAHLVEQAGLEIPQFNRRRAMRALEIAHFGQDLENQEILYEPLIICLDDERSQLYERINHRVDLMFEAGLLDEAKWLFDHSPNVQAAKGIGYKELFPYFRGEQTFEEARESLKQATRRFAKRQLTWFRNRMQVTFYQIGESGVQDRILSQIEEFLDDEG | not soluble
MSEIDLTSEYSCSKHSKNPETAGEEFDVKVEKIYEDLKNSSIERQEDIPYFPNGEMTRIDIWGPETAEKVFIMIHGGYWLIGNRKKCLAVVHVAQKLGYTVVSVGYDYANKDHVLSKTIVEALEGVQFALKKFKNAKKIVIGGHSVGAHLAFQAVTRIHDPRISGAYLSAGIYKIQELTSTTYGHDLGLTSEEAETCSCDYELMKHVRFPVLIACCRRESPKLYQQNQDFSSQVANAQYKV | not soluble
MNMVSQGVKGGEYRSPQKNYTQLTFKNVDAIGHPQGAISQMLNSTGYYCQSQTTPFVPYFLSSLDFFAWRQAIPEMFYPEALVPGMREIRGNGETWGNIFPRSGAVTQVDDYKASAVSVHRVADFLTRMAQPHIYLPTAKQEQGQNGHWYPDPVQEGEVGNHKWQQLHPQLSQSCSIFPDTPPAQLSENGSYAWALWRPYKCCKRRGQTFLYSVDWSNLEHHHHHH | not soluble
MGSDKIHHHHHHMLKINQVKLTQVNLAQINTAKVNTIPAKVVHKMMKKVVITTLIAMNLMQVSFAADVVEKNETKVVAKPVKVAPVLNMPMAAKTELNATLYSRSHIPITASLNARVDYLVEPGDFVAQGDKLAGMDLLPIQLRQAEQKAQISRARINVAYIKNELSRLQALSKTQAVSQFKLDQMRSEHDLAAADLEIAQLKLAQINEQLSRAIITAPFAGIITERLIRVGSEVNRGDILLRLLDTEHLEARLYIPIKYLAFINKGDKLSMSASDQKTLAAVTAKIPRADPRSQTFEVRLNIPKAFNKHWAAGQLVSVSVPTQKATASLTVPRDALILRKSGSYVIKVNADNTVSRLAVVVGKGNKERVAITGSLKHGDNVAIRGAERLADGDKVVIQ | not soluble
NPGENPKAQKALKQLFDGAQKDDIHLYKISGYRSYPTQVKLYNNYVKRDGKKAADKYSARPGYSEHQTGLTFDVGGVDSDKNLYASFGKTEEGRWIAKNAHNYGFIIRYPKNKESITGYQYEPWHLRYLGKKKATKVYKSGETLEEFVGLK | not soluble
MLSRAGKHRQLPSLRASQAEASPICSELEDKHKNVQEPDGISNHFLQEKKFAGSESKEYKRKDVVLYREKLLAPEVTNLVSREQMMMHPRDQYLHVLSPYCYSAIEVSHAVFSIFAYIVCDVNWSREYCSKHTTCKQDFKTMIIAVMREYLSMGEAADISRLPRAAMFNLQQAGQLATPTASGTQRRAEPETYVDLHALSDKINHLKTHCNYQIRRDRAFPPMVNLFEIEPRVPVKMSYFLAECKTYGIHQCLHPVSATVKQIDQAFLPAWKARVLFMLGWMDNFFDEDMDDLKRCIRKAINFKVPLKTWESEEDLMVVILEQNQAKLKLARECLTTISKCEHADPHDWLHCNRKRRERHFIVCEYKNPGIWHSSEILKISLKILRQCMGHATLDLKEVNVKSENKIGSDASPDVPLDKKKLKRQKQKLRKAAEPPEPTPPPPPPVIPVPEAKPCEKCFRTSERCNKANAELKTSLNKIKILEKKLSAEKRAFKENQETWEKKLEELQTELQAKERTIQEFQDKVAPKCAESVSDGFLRDGEELIATFDVTSSNATEEFESECIICREDIDLENGTVQCPRCTEIYHSHCATQWLSQKPTCPKCIFHIGHINEFPSLV | not soluble
RKEEVLFGSFRLFTVTPVRYIKEIVTIGFPASIQNLIYASISMVLTRLVTGWGDTAVAIQRVGGQVESVSWMVGEGFAAAVNSFTGQNFGAGLFDRVKKGFSAAVK | not soluble
